Measured values: patent US20230071765A1, “COMPOSITIONS HAVING THIOREDOXIN ACTIVITY AND RELATED METHODS” (ORPRO THERAPEUTICS, INC., priority 2020, published 2023)

Assays:
pediatric patients = settings: human, in vivo; cited from earlier work
[1] = system: CF patient sputum on wild type rat trachea; assay: CF sputum transport ex vivo on excised rat trachea (μOCT); design: species or system human sputum; settings: sputum treated 2 hrs; ORP100S 3 mM, DTT 1.6 mM, DNase 10 or 25 μg/ml; PBS 0.97±0.17
Protocol: To determine the effect of ORP100S on CF sputum transportability, sputum specimens spontaneously expectorated from 4 CF patients hospitalized for pulmonary exacerbation were collected and stored at 4° C. before being divided into 200 μL aliquots and treated with ORP100S (3 mM), PBS, DTT (1.6 mM), or DNase (10 or 25 μg/ml) on the day of or day following collection. Upon treatment, sputum aliquots were placed in a 37° C. water bath for 2 hrs and then applied (3 μl per sample) for μOCT imaging to the distal end of trachea excised from adult non-CF rats. Trachea were washed 2× with 500 μl of PBS before sputum addition. Sample conditions were applied in triplicate in random order at distinct anatomic locations—2 washes using 500 μl of PBS were performed between each sample addition—and at least 3 images were collected from each region of interest. Confirmation of trachea viability was obtained by imaging with PBS upon completion of the experiment.
One-micron resolution spectral domain μOCT was used to obtain measurements of mucociliary transport (MCT) rate and ciliary beat frequency (CBF) in HBE monolayers and of MCT rate of sputum ex vivo. This first-in-kind, high-speed (40 frames per second, 512 lines per frame) microscopic reflectance imaging modality enables simultaneous anatomic imaging in cell cultures and intact tissues that readily distinguishes the properties of CF compared to normal epithelia (Liu L, Chu K K, Houser G H, Diephuis B J, Li Y, Wilsterman E J, Shastry S, Dierksen G, Birket S E, Mazur M, et al., 2013, Method for quantitative study of airway functional microanatomy using micro-optical coherence tomography, PLoS One 8(1):e54473; Tuggle K L, Birket S E, Cui X, Hong J, Warren J, Reid L, Chambers A, Ji D, Gamber K, Chu K K, et al., 2014, Characterization of defects in ion transport and tissue development in Cystic Fibrosis Transmembrane Conductance Regulator (CFTR)-knockout rats. PLoS One 9(3):e91253). In addition to MCT rate and CBF, μOCT also has the capability to assess physical characteristics of the airway surface liquid. Images were captured, and MCT rate and CBF calculated, as described in the preceding references.
The effect of ORP100S on mucus clearance using intact rat trachea, which include the complexities of the airway surface such as gland expression of a fully differentiated mucosal surface, was further evaluated. […] MCT was measured by projecting a cross-sectional line through the mucus through time, with the slope of the particle trajectories indicating velocity. […]

B1: DNase: recombinant human DNase I (protein, UniProt P24855 23-282, looked up)
Deoxyribonuclease-1: LKIAAFNIQTFGETKMSNATLVSYIVQILSRYDIALVQEVRDSHLTAVGKLLDNLNQDAPDTYHYVVSEPLGRNSYKERYLFVYRPDQVSAVDSYYYDDGCEPCGNDTFNREPAIVRFFSRFTEVREFAIVPLHAAPGDAVAEIDALYDVYLDVQEKWGLEDVMLMGDFNAGCSYVRPSQWSSIRLWTSPTFQWLIPDSADTTATPTHCAYDRIVVAGMLLRGAVVPDSALPFNFQAAYGLSDQLAQAISDHYPVEVMLK
Q: Which “pediatric patients with clinical deterioration in lung function” value (pediatric patients) does the source give for B1 here?
A: 6-30%

Q: And the “MCT rate of treated sputum” value [1]?
A: 2.30±0.28 mm/min
